# According to patent publication US10464978B2, “Peptides and combination of peptides for use in immunotherapy against ovarian cancer and other cancers” (immatics biotechnologies GmbH, priority 2015, dated 2019):
# Molecular target: HLA-A*02:01 (Homo sapiens, UniProt P04439, D140Y/D185E/D98H/E176V/E277Q/G131W/G231S/I119V/I121R/I166T/I218V/L300P/L318F/N151K/N90K/P208A/P217A/Q86G/Q94H/R138H/R169H/T345S)
# Assay: MHC binding assay: UV-ligand exchange with beta2m ELISA (peptide exchange yield)
# Details: binding to HLA-A*02:01
# Method in brief: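 Peptide-MHC complexes formed by UV-ligand exchange, a UV-cleavable peptide being replaced by the candidate peptide. Exchange products diluted 100-fold, captured on streptavidin-coated plates for 1h at 37° C, then detected with 2 ug/ml HRP anti-β2m (1h, 37° C) and TMB, absorbance 450 nm; value is exchange yield.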
row,Substance,"Peptide exchange (MHC class I binding score, peptide exchange yield)"
1,396 (ALLPDLPAL; listed as Homo sapiens) [compound 396],“+++” (≥50 = +++)
2,397 (YLFGERLLEC; listed as Homo sapiens) [compound 397],“+++” (≥50 = +++)
3,398 (KLLEEDGTIITL; listed as Homo sapiens) [compound 398],“++” (≥20% = ++)
4,401 (ILLDDTGLAYI; listed as Homo sapiens) [compound 401],“+++” (≥50 = +++)
5,402 (VLFSGALLGL; listed as Homo sapiens) [compound 402],“++” (≥20% = ++)
6,403 (KLYDRILRV; listed as Homo sapiens) [compound 403],“++” (≥20% = ++)
7,407 (YLMDLINFL; listed as Homo sapiens) [compound 407],“+++” (≥50 = +++)
8,409 (LLDAMNYHL; listed as Homo sapiens) [compound 409],“++” (≥20% = ++)
9,412 (YLDDLNEGVYI; listed as Homo sapiens) [compound 412],“++” (≥20% = ++)
10,426 (RLADKSVLV; listed as Homo sapiens) [compound 426],“+++” (≥50 = +++)
11,427 (ALLPLSPYL; listed as Homo sapiens) [compound 427],“+++” (≥50 = +++)
12,428 (KLGHTDILVGV; listed as Homo sapiens) [compound 428],“++” (≥20% = ++)
13,431 (SLVNVVPKL; listed as Homo sapiens) [compound 431],“++” (≥20% = ++)
14,432 (TLIEESAKV; listed as Homo sapiens) [compound 432],“++” (≥20% = ++)
15,433 (AMLNEPWAV; listed as Homo sapiens) [compound 433],“+++” (≥50 = +++)
16,434 (KVSNSGITRV; listed as Homo sapiens) [compound 434],“++” (≥20% = ++)
17,436 (HLAEVSAEV; listed as Homo sapiens) [compound 436],“+++” (≥50 = +++)
18,440 (ALADGVTMQV; listed as Homo sapiens) [compound 440],“++” (≥20% = ++)
19,441 (ALLENPKMEL; listed as Homo sapiens) [compound 441],“+++” (≥50 = +++)
20,443 (GLWEIENNPTV; listed as Homo sapiens) [compound 443],“+++” (≥50 = +++)
21,444 (GLLRDEALAEV; listed as Homo sapiens) [compound 444],“+++” (≥50 = +++)
22,447 (QLVPALAKV; listed as Homo sapiens) [compound 447],“++” (≥20% = ++)
23,448 (NLLETKLQL; listed as Homo sapiens) [compound 448],“+++” (≥50 = +++)

row,Substance,"Peptide exchange (MHC class I binding score, peptide exchange yield)"
1,449 (KLAEGLDIQL; listed as Homo sapiens) [compound 449],“+++” (≥50 = +++)
2,450 (FMIDASVHPTL; listed as Homo sapiens) [compound 450],“+++” (≥50 = +++)
3,451 (LLLLDTVTMQV; listed as Homo sapiens) [compound 451],“++” (≥20% = ++)
4,453 (KLLEATSAV; listed as Homo sapiens) [compound 453],“++” (≥20% = ++)
5,454 (KLPPPPPQA; listed as Homo sapiens) [compound 454],“+++” (≥50 = +++)
6,456 (LLIGHLERV; listed as Homo sapiens) [compound 456],“+++” (≥50 = +++)
7,457 (SLLPGNLVEKV; listed as Homo sapiens) [compound 457],“+++” (≥50 = +++)
8,458 (SLIDKLYNI; listed as Homo sapiens) [compound 458],“++” (≥20% = ++)
9,460 (AMLEKNYKL; listed as Homo sapiens) [compound 460],“++++” (≥75% = ++++)
10,461 (VMFRTPLASV; listed as Homo sapiens) [compound 461],“++” (≥20% = ++)
11,462 (KLAKQPETV; listed as Homo sapiens) [compound 462],“+++” (≥50 = +++)
12,463 (SLVESHLSDQLTL; listed as Homo sapiens) [compound 463],“+++” (≥50 = +++)
13,465 (QLCDLNAEL; listed as Homo sapiens) [compound 465],“+++” (≥50 = +++)
14,467 (FLAKDFNFL; listed as Homo sapiens) [compound 467],“+++” (≥50 = +++)
15,469 (YLASDEITTV; listed as Homo sapiens) [compound 469],“+++” (≥50 = +++)
16,471 (YLYNNMIAKI; listed as Homo sapiens) [compound 471],“+++” (≥50 = +++)
17,472 (KLLEVSDDPQV; listed as Homo sapiens) [compound 472],“+++” (≥50 = +++)
18,474 (YLDPALELGPRNV; listed as Homo sapiens) [compound 474],“+++” (≥50 = +++)
19,475 (LLLNEEALAQI; listed as Homo sapiens) [compound 475],“+++” (≥50 = +++)
20,476 (ALMERTGYSMV; listed as Homo sapiens) [compound 476],“+++” (≥50 = +++)
21,477 (ALLPASGQIAL; listed as Homo sapiens) [compound 477],“+++” (≥50 = +++)
22,480 (ALLEDSCHYL; listed as Homo sapiens) [compound 480],“+++” (≥50 = +++)

# Next, values leading:
row,"Peptide exchange (MHC class I binding score, peptide exchange yield)",Substance
1,“+++” (≥50 = +++),399 (YLFEPLYHV; listed as Homo sapiens) [compound 399]
2,“++” (≥20% = ++),400 (SLLTEQDLWTV; listed as Homo sapiens) [compound 400]
3,“++” (≥20% = ++),405 (ALYDVFLEV; listed as Homo sapiens) [compound 405]
4,“++” (≥20% = ++),408 (VLDDSIYLV; listed as Homo sapiens) [compound 408]
5,“++” (≥20% = ++),429 (GLVNDLARV; listed as Homo sapiens) [compound 429]
6,“+++” (≥50 = +++),430 (HLYSSIEHLTT; listed as Homo sapiens) [compound 430]
7,“+++” (≥50 = +++),437 (SMAPGLVIQAV; listed as Homo sapiens) [compound 437]
8,“++++” (≥75% = ++++),438 (KLLPLAGLYL; listed as Homo sapiens) [compound 438]
9,“+++” (≥50 = +++),439 (YLLQEIYGI; listed as Homo sapiens) [compound 439]
10,“+++” (≥50 = +++),442 (GLLGGGGVLGV; listed as Homo sapiens) [compound 442]
11,“+++” (≥50 = +++),446 (QLIPALAKV; listed as Homo sapiens) [compound 446]
12,“+++” (≥50 = +++),452 (ILLEHGADPNL; listed as Homo sapiens) [compound 452]
13,“++” (≥20% = ++),455 (SLLKEPQKVQL; listed as Homo sapiens) [compound 455]
14,“++” (≥20% = ++),459 (ALITEVVRL; listed as Homo sapiens) [compound 459]
15,“+++” (≥50 = +++),464 (ALNDCIYSV; listed as Homo sapiens) [compound 464]
16,“++++” (≥75% = ++++),466 (VLIANLEKL; listed as Homo sapiens) [compound 466]
17,“+++” (≥50 = +++),468 (YLRSVGDGETV; listed as Homo sapiens) [compound 468]
18,“+++” (≥50 = +++),473 (AMATESILHFA; listed as Homo sapiens) [compound 473]
19,“+++” (≥50 = +++),478 (YLLHEKLNL; listed as Homo sapiens) [compound 478]
20,“+++” (≥50 = +++),479 (SLFGNSGILENV; listed as Homo sapiens) [compound 479]
21,“+++” (≥50 = +++),481 (GLIEDYEALL; listed as Homo sapiens) [compound 481]
